This experiment deals with biotinylated preS1 peptide, residues 69–108 (hepatitis B virus (residues numbered …, C-terminal biotin)). The experiment is described as follows: BLI.

This passage reports koff results from doi:10.1101/2025.06.13.659407 (2025).

Usually koff stands for the first-order rate constant of dissociation. High values mean a short-lived complex, low ones a long-lived complex.

B1: sEGF4–6-hFc (soluble fusion protein comprising SCARF2's EGF4–6 domains, with an N-terminal HA tag an (Fc fusion)
chain: GSYPYDVPDYAGSSACYCSATSRCDPQTGACLCHAGWWGRSCNNQCACNSSPCEQQSGRCQCRERTFGARCDRYCQCFRGRCHPVDGTCACEPGYRGKYCR
Molecule B1 registered a koff of 0.000289 s⁻¹.
